According to the DeepSol protein solubility set:

Assay: soluble on expression in E. coli; label from the status in PepcDB or PDB records

Sequence	soluble on expression in E. coli
VDNDKLKDGYVNFINILNLDDMYVKKMREWRNQDFVRQRMFNREIITEEEHARFIEHLKDNREKNYYVCFLGNKPFGVLYYEFFRKNNNLEFGYYLTEQEFINSGLGIVMEYSLLNHAFYDLKVNKVFCRTLSSNEKVVSLHMNFGFETEGILRQHVRINDGYEDITIQAINERAWAQNRPKIEKYLRVIVDVDKIGPITGRS	soluble
MNLRTQKFHMYFKQWIELYKEGAVRPVTYQKYQMSHKHLVTLAPDLHMDELKRRTYQELINEFAANHEKQTTLDFHHHLKAAILDALDEGILEQDPTRKVLEHHHHHH	not soluble
MGSDKIHHHHHHMTSARRQLIDANATPFYHVINRCVRRAFLCGEDKLTGRSYEHRRGWIVDKIKVLSSIFCIDICAYAVMNNHYHLVLKINVEKAKSLSQREIISRWCQITKGHAVATKYMNGDVLIDGEIMLLDALLAEWHERLSSVSWFMRCLNEEIARKANREDECKGAFWEGRFKSQALLDEQALLACMMYVDLNPIRAGVADSLQSSDFTSIQERISLLNLQRDAFTSLKTQVKSVNKLPQIIHQSLAKFDGPTHQSQQTGIPFHFADYLELIDWTGRAIRLDKKGYIDNQRPKLLHELGIASDAWLTSAKEFRRQYSGISGRWDSMCEFKKQHNSGKWCKGKASSQALHP	not soluble
MADEKMSEFTDEELNKKVKELQDAVIEKVRTEAETPAVSGGYPGSNAYRPELDRVPSREEILERISWLREMIDDILKPKPSDFDPLIEKTEKLRDLFGVESHQPGGDSRLRNIDTSKNAIQQWDGAFADNLAEKYFAPLEDVRGNHGRMAKVLNENAVAMKATYVHARGQAKRTLDDGVKAIEAIVDSKGSDLKILLAILTGATSLITPLLPSKTAVQLGSAGLSTLLSNLGEAGPEEQEEVPLGADTPEGVMDNVKEALEKVKTKRGEDEDSIIKAVNDSEKAIYERMTKSTHQTEDDPIYAPRPTIMDSSKPSEGLTKD	not soluble
MMQIDRNEKADAWLAHTQREQSGRLTIFLGAAPGVGKTYAMLTRAHELMQQGKQVVVGVVETHGRADTARLIAGLNVIPRRVVEYQDRKLEEMDLDQILHIKPEIVLVDELAHRNVPGSRHEYRWQDVNEILDAGINVYSTLNIQHLESLNDVVYQITGIRVTETVPDALLKRLKDIRLVDLPVPELLERMKHGKIYLDDMAPHALQGFFKPAHLTALRDLAIQTVAGQV	not soluble
MAGPQQQPPYLHLAELTASQFLEIWKHFDADGNGYIEGKELENFFQELEKARKGSGMMSKSDNFGEKMKEFMQKYDKNSDGKIEMAELAQILPTEENFLLCFRQHVGSSTEFMEAWRKYDTDRSGYIEANELKGFLSDLLKKANRPYDEPKLQEYTQTILRMFDLNGDGKLGLSEMSRLLPVQENFLLKFQGMKLTSEEFNAIFTFYDKDRSGYIDEHELDALLKDLYEKNKKEMNIQQLTNYRKSVMSLAEAGKLYRKDLEIVLCSEPPM	not soluble
MGSDKIHHHHHHMKLNHRQLEAFRAMIETGSVTEASKRIGVTQPAASRLISDLEYAIGYALFLREKKRLTPTPEAMALFEEVDRSYIGLGLIGDAARDIGANRRGALRIASLPAMALSFLPKVISKFCEDKPDISVDMQIHSSQRVIQCVASQQFDLGFAEIDSLHPAVKSQAFFESPMVAILPKHHPLCRKATLTPQDFSNENFIALGSNYTMRKRIDALFLANNITRKIQIETQLSMAVANLVASGAGVSIIEALTASSFRGLNLVEARPFLPEITYTYRVLSPAHRPISLLTASFINATRDALMKFDVSGHAL	not soluble
VRSTPPASAGRSTPPALAGHSTPPALAGHSTLCGRPVAGDRALIMAIVNRTPDSFYDKGATFSDAAARDAVHRAVADGADVIDVGGVKAGPGERVDVDTEITRLVPFIEWLRGAYPDQLISVDTWRAQVAKAACAAGADLINDTWGGVDPAMPEVAAEFGAGLVCAHTGGALPRTRPFRVSYGTTTRGVVDAVISQVTAAAERAVAAGVAREKVLIDPAHDFGKNTFHGLLLLRHVADLVMTGWPVLMALSNKDVVGETLGVDLTERLEGTLAATALAAAAGARMFRVHEVAATRRVLEMVASIQGVRPPTRTVRGLA	soluble
MYALEIEQLRKTYAGGFEALKGISLQVKKGDFYALLGPNGAGKSTTIGIISSLVNKTSGKVTVFGYDLDSQLELAKQKLGLVPQEFNFNPFETVEQIVLQQAGYYGVPKALAKERAKKYLTQLDLWEKRSERARNLSGGMKRRLMIARALMHEPQLLILDEPTAGVDIELRRSMWEFLKQINAQGVTIILTTHYLEEAEMLCRHIGIIQRGELIENTTMKSLLGKLHVETFVLDVDGNAPIAPLQGVVKQQMVEGSLEIELEKSQGINHVFTQLTEQGVKVLSMRNKVNRLEELFVSIVNSGKRG	not soluble
MSLNKPFERRSLLRGAGALTAASLAPWAAGCAADDDDALTFFFAANPDELRPRMRVVNEFQRRYPDIKVRALLSGPGVMQQLATFCAGGKCPDVLMAWELTYAELADRGVLLDLNTLLARDQAFAAELKSDSIGALYETFTFNGGQYAFPEQWSGNFLFYNKQLFDDAGVPPPPGSWERPWSFAEFLDAAQALTKQGRSGRDRQWGFVNAWVSFYAAGLFAMNNGVPWSVPRMNPTHLNFDHDGFLEAVQFYADLTNKHKVAPSAAEQQSMSTADLFSVGKAGIALAGHWRYQTFDRADGLDFDVAPLPIGPRGRAACSDIGVTGLAIAATSRRKDQAWEFVKFATGPVGQALIGESRLFVPVLRSAINSHGFANAHRRVGNLAVLSEGPAYSEGLPVTPAWEKIAALMDRYFGPVLRGSRPATSLTGLSQAVDEVLRNEGHHHHHH	not soluble
MSLPFTTILRMSRSRLVKQKGNKKRMTTVVSNAREIAAIDLGSNSFHMVVAKVVDQDLQLISRHKQRVRLAAGLDEQKNLDEESIQRGLECLAMFAERLQGFEPRNVRIAATHTLRQARNANLFIQRALDVLPFPIEIIPGSEEARLIYLGVAHTQPQADSMLVVDIGGGSTEMIIGKGFEAELLNSKQMGCVNFTERYFANGKLSRKNFAQAIVASEQKLESIASKYRKKGWQMAFGSSGTIKAIHEVLIGQGHEDGLITFERLSKLIEKLCEWDSIDDLQLPGLTDDRKPVFAAGVAILSAIFHGLNIKEMHFSDGALREGLLYEMEDRFKYSDIRLRTTENLAAKHLVDLEHAAKVKGHAREFLAQVANELGLPEGSELCDLLEWGALLHEVGLSINLQGFHRHSAYILRHNNMAGFNSEQQLVLSNLARFQRKSLKLNELDDFSLFKKKHIIGLIRVLRLAIVVNGQRNDDPLPPLTLSAKDDEWRLECEQPDWLENNKLLHADLQTEQEYWREVGWQLLFEGHHHHHH	not soluble
MGSDKIHHHHHHMTWVGVVDAGRHVEATMKLELGFDPRDLLRKLGPGNSIAKFAKNQTIFAQGDEADSVYLLLQGRIKVVVLSAQGKEAATGMVAPGQFFGDGCLVGEATRTTTTIAMQDCLVAAIPSTRLIETLRAQPDFAELFVRHLLLRNRRIEEDLLDQLLNCSEKRLARLLLRLADFEEGGEPQPIAPHISQETLAEMIGTTRSRVSYFMNKFRKLGLISYDRTIEVHPGRLSAVLHDRAEARG	not soluble
MAEGKAGGAAGLFAKQVQKKFSRAQEKVLQKLGKAVETKDERFEQSANNFYQQQAEGHKLYKDLKNFLSAVKVMHESSKRVSETLQEIYSSEWDGHEELKAIVWNNDLLWEDYEEKLADQAVRTMEIYVAQFSEIKERIAKRGRKLVDYDSARHHLEAVQNAKKKDEAKTAKAEEEFNKAQTVFEDLNQELLEELPILYNSRIGCYVTIFQNISNLRDVFYREMSKLNHNLYEVMSKLEKQHSNKVFVVKGLSSSSRRSLVISPPVRTATVSSPLTSPTSPSTLSLKSESESVSATEDLAPDAAQGEDNSEIKELLEEEEIEKEGSEASSSEEDEPLPACNGPAQAQPSPTTERAKSQEEVLPSSTTPSPGGALSPSGQPSSSATEVVLRTRTASEGSEQPKKRASIQRTSAPPSRPPPPRATASPRPSSGNIPSSPTASGGGSPTSPRASLGTGTASPRTSLEVSPNPEPPEKPVRTPEAKENENIHNQNPEELCTSPTLMTSQVASEPGEAKKMEDKEKDNKLISADSSEGQDQLQVSMVPENNNLTAPEPQEEVSTSENPQL	soluble
MRCVGVGNRDFVEGVSGGAWVDLVLEHGGCVTTMAQGKPTLDFELTKTTAKEVALLRTYCIEASISNITTATRCPTQGEPYLKEEQDQQYICRRDVVDRGWGNGCGLFGKGGVVTCAKFSCSGKITGNLVQIENLEYTVVVTVHNGDTHAVGNDTSNHGVTATITPRSPSVEVKLPDYGELTLDCEPRSGIDFNEMILMKMKKKTWLVHKQWFLDLPLPWTAGADTSEVHWNYKERMVTFKVPHAKRQDVTVLGSQEGAMHSALAGATEVDSGDGNHMFAGHLKCKVRMEKLRIKGMSYTMCPGKFSIDKEMAETQHGTTVVKVKYEGAGAPCKVPIEIRDVNKEKVVGRIISSTPLAENTNSATNIELEPPFGDSYIVIGVGNSALTLHWFRKGSSIGKSLEHHHHHHHH	not soluble
MDFKYDVIVIGAGHAGCEAAAAAANLGSKTCLITMDMNKIGQMSCNPAVGGIAKGQIVREIDALGGQMGLVTDETAIQFRILNRSKGPAMWSPRAQCDRAKFIWSWREKLENTPNLHIWQDTVCELLVENGEVVGLVTLWGVTFKAKCIVLTAGTFLNGLMHVGRHQLPGGRMAEPASYQLTESIARHGIAYGRMKTGTPVRIDARSIHFDLMDTQDGECDFHKFSFMNTSTRHLKQLQCWTCYTNEEVHRILREGLPDSPLFNGQIQSIGPRYCPSIETKIVTFPDKEQHQLFLEPEGETTQELYLNGFSSSLPMDIQIAALKKVPAFKDIVIYRPGYAIEYDYFDPTQLKHSLESKIIKNLFFAGQVNGTTGYEEAGGQGLIAGINAHINCHGGEAFTLARDEAYIGVLIDDLVTKGVDEPYRMFTSRAEYRILLRMDDADMRLTERAYHLGLAREDRYQLMKTKKEALEQIVNFAKNYSMKPALINDALEKLGTTPLRQGCKLIEILNRPQITIENIAEHVPAFQRELEKATAADSDRKEEILEAAEILIKYQGYIDRERMIAEKLARLESIKIKGKFDYASIQSLSTEARQKLVKIDPETIAQASRIPGVSPSDINVLLVLSGR	not soluble
MAHHHHHHMTSTLTNSNRINIPAVCRLRERNTNKTVGSGVLVAQGLLLTSATAIPTQSRATHIVATFFEGTKKSAVDVQLQPQRYYFASRYPPEMDYCLISCEEAPLLNVTPVHMALTGKGWAPVEEGDVVLIVEHPIGDVAGTAAVPLDGKATFSSTLSATGDGDFDSVRAPYTEQKRFEEVLRCRGNVSFLKSNGSWRTAGCPAFNEHGQLVGLQSQSRADGEGVVNRILSLISIVKHLFANVQLPHLPQEDVTFEDVWDTWYVTNDITRILAILANFKGKSMAQQVTWRLCELTAKPQLVKSIASNGGIEVILQNLSLFSSDEKLSESGLRALWNVSIGEEAHLATIIKKEGVQTILDVVESFPANETVLEFGAVLLHNIAGCRAAPNFSEAHGARALKALYPGFQQFRESVVLQKFALSFFATLARLNEDFARDLVQQHVIEHITHLVEEKPKQIFLMEIVVGFVAELAQYPQTVELMCSNTPQYAAASMSYLIDLLIHIILEYKDLDSLLVSGNRALWGLGNVPTCRGIILENPRGIDALRISLPPLIASTHR	soluble
APPAAGQQQPPREPPAAPGAWRQQIQWENNGQVFSLLSLGSQYQPQRRRDPGAAVPGAANASAQQPRTPILLIRDNRTAAARTRTAGSSGVTAGRPRPTARHWFQAGYSTSRAREAGASRAENQTAPGEVPALSNLRPPSRVDGMVGDDPYNPYKYSDDNPYYNYYDTYERPRPGGRYRPGYGTGYFQYGLPDLVADPYYIQASTYVQKMSMYNLRCAAEENCLASTAYRADVRDYDHRVLLRFPQRVKNQGTSDFLPSRPRYSWEWHSCHQHYHSMDEFSHYDLLDANTQRRVAEGHKASFCLEDTSCDYGYHRRFACTAHTQGLSPGCYDTYGADIDCQWIDITDVKPGNYILKVSVNPSYLVPESDYTNNVVRCDIRYTGHHAYASGCTISPY	soluble
